Numbering of substitutions follows the chain as printed. In names and notes the source's numbering stands.
T1: hTF.1-219 (soluble tissue factor)
T1 chain: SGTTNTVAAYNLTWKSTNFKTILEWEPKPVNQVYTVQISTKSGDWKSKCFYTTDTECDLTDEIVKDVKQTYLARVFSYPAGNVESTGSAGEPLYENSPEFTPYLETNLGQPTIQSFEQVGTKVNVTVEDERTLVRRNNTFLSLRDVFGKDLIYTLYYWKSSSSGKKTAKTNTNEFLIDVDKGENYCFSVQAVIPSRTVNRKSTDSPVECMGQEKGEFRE

T2: TLT-1 receptor on the surface of activated human platelets (human) (UniProt Q86YW5)
T2 sequence: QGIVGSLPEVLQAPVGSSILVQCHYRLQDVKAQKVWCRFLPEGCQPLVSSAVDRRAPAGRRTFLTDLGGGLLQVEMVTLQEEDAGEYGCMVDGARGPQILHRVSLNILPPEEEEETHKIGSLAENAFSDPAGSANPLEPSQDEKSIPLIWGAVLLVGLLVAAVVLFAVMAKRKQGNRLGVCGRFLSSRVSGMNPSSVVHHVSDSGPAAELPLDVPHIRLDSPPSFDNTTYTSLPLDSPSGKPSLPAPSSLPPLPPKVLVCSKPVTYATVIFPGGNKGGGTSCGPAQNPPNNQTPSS

T3: TLT-1 18-188 relipidated in 20:80 PS:PC vesicles (human) (UniProt Q86YW5)
T3 sequence: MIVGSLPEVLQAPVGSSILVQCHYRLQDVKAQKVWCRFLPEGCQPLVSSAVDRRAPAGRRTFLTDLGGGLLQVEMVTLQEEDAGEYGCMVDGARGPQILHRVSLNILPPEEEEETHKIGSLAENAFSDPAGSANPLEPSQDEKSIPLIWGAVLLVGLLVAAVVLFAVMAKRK

T4: TLT-1 18-188 relipidated in 20:80 PS:PC vesicles (human, UniProt Q86YW5 18-188)
T4 sequence: T3 sequence

T5: TLT-1 receptor on the surface of activated human platelets (human, UniProt Q86YW5 16-311)
T5 sequence: T2 sequence

B1: Factor VIIa (FVIIa) (protein)
chain: ANAFLEELRPGSLERECKEEQCSFEEAREIFKDAERTKLFWISYSDGDQCASSPCQNGGSCKDQLQSYICFCLPAFEGRNCETHKDDQLICVNENGGCEQYCSDHTGTKRSCRCHEGYSLLADGVSCTPTVEYPCGKIPILEKRNASKPQGRIVGGKVCPKGECPWQVLLLVNGAQLCGGTLINTIWVVSAAHCFDKIKNWRNLIAVLGEHDLSEHDGDEQSRRVAQVIIPSTYVPGTTNHDIALLRLHQPVVLTDHVVPLCLPERTFSERTLAFVRFSLVSGWGQLLDRGATALELMVLNVPRLMTQDCLQQSRKVGDSPNITEYMFCAGYSDGSKDSCKGDSGGPHATHYRGTWYLTGIVSWGQGCATVGHFGVYTRVSQYIEWLQKLMRSEPRPGVLLRAPFP
B2: Fab 0012-LC-L6-TF;VH-CH1-HPC4 (protein)
light chain-linker-TF: DVVMTQTPLSLPVSLGDQASISCRSSQSLVHRNGNTYFHWCLQKPGQSPKLLIYKVSNRFSGVPDRFSGSGSGTDFTLKISRVEAEDLGVYFCSQSTHVPYTFGGGTKLEIKRTVAAPSVFIFPPSDEQLKSGTASVVCLLNNFYPREAKVQWKVDNALQSGNSQESVTEQDSKDSTYSLSSTLTLSKADYEKHKVYACEVTHQGLSSPVTKSFNRGECGGGGSGGGGSGSGGGGSGGGGSGGGGSSGTTNTVAAYNLTWKSTNFKTILEWEPKPVNQVYTVQISTKSGDWKSKCFYTTDTECDLTDEIVKDVKQTYLARVFSYPAGNVESTGSAGEPLYENSPEFTPYLETNLGQPTIQSFEQVGTKVNVTVEDERTLVRRNNTFLSLRDVFGKDLIYTLYYWKSSSSGKKTAKTNTNEFLIDVDKGENYCFSVQAVIPSRTVNRKSTDSPVECMGQEKGEFRE
VH-CH1-HPC4: EVKLLESGGGLVQPGGSLKLSCAASGFDFSRYWMTWVRQAPGKGLEWIGEINPDSSTINYTPSLKDKFIISRDNAKNTLYLQMSEVRSEDTALYYCASGVFTSWGQGTLVTVSAASTKGPSVFPLAPCSRSTSESTAALGCLVKDYFPEPVTVSWNSGALTSGVHTFPAVLQSSGLYSLSSVVTVPSSSLGTKTYTCNVDHKPSNTKVDKRVESKEDQVDPRLIDGK
B3: Fab 0012-LC-L7-TF;VH-CH1-HPC4 (protein)
light chain-linker-TF: DVVMTQTPLSLPVSLGDQASISCRSSQSLVHRNGNTYFHWCLQKPGQSPKLLIYKVSNRFSGVPDRFSGSGSGTDFTLKISRVEAEDLGVYFCSQSTHVPYTFGGGTKLEIKRTVAAPSVFIFPPSDEQLKSGTASVVCLLNNFYPREAKVQWKVDNALQSGNSQESVTEQDSKDSTYSLSSTLTLSKADYEKHKVYACEVTHQGLSSPVTKSFNRGECGGGGSGGGGSGGGGSGSGGGGSGGGGSGGGGSSGTTNTVAAYNLTWKSTNFKTILEWEPKPVNQVYTVQISTKSGDWKSKCFYTTDTECDLTDEIVKDVKQTYLARVFSYPAGNVESTGSAGEPLYENSPEFTPYLETNLGQPTIQSFEQVGTKVNVTVEDERTLVRRNNTFLSLRDVFGKDLIYTLYYWKSSSSGKKTAKTNTNEFLIDVDKGENYCFSVQAVIPSRTVNRKSTDSPVECMGQEKGEFRE
VH-CH1-HPC4: B2 VH-CH1-HPC4
B4: Fab 0012-LC-L8-TF;VH-CH1-HPC4 (protein)
light chain-linker-TF: DVVMTQTPLSLPVSLGDQASISCRSSQSLVHRNGNTYFHWCLQKPGQSPKLLIYKVSNRFSGVPDRFSGSGSGTDFTLKISRVEAEDLGVYFCSQSTHVPYTFGGGTKLEIKRTVAAPSVFIFPPSDEQLKSGTASVVCLLNNFYPREAKVQWKVDNALQSGNSQESVTEQDSKDSTYSLSSTLTLSKADYEKHKVYACEVTHQGLSSPVTKSFNRGECGGGGSGGGGSGGGGSGGGGSGSGGGGSGGGGSGGGGSSGTTNTVAAYNLTWKSTNFKTILEWEPKPVNQVYTVQISTKSGDWKSKCFYTTDTECDLTDEIVKDVKQTYLARVFSYPAGNVESTGSAGEPLYENSPEFTPYLETNLGQPTIQSFEQVGTKVNVTVEDERTLVRRNNTFLSLRDVFGKDLIYTLYYWKSSSSGKKTAKTNTNEFLIDVDKGENYCFSVQAVIPSRTVNRKSTDSPVECMGQEKGEFRE
VH-CH1-HPC4: B2 VH-CH1-HPC4
B5: Fab 0012-LC-L9-TF;VH-CH1-HPC4 (protein)
light chain-linker-TF: DVVMTQTPLSLPVSLGDQASISCRSSQSLVHRNGNTYFHWCLQKPGQSPKLLIYKVSNRFSGVPDRFSGSGSGTDFTLKISRVEAEDLGVYFCSQSTHVPYTFGGGTKLEIKRTVAAPSVFIFPPSDEQLKSGTASVVCLLNNFYPREAKVQWKVDNALQSGNSQESVTEQDSKDSTYSLSSTLTLSKADYEKHKVYACEVTHQGLSSPVTKSFNRGECGGGGSGGGGSGGGGSGGGGSGGGGSGSGGGGSGGGGSGGGGSSGTTNTVAAYNLTWKSTNFKTILEWEPKPVNQVYTVQISTKSGDWKSKCFYTTDTECDLTDEIVKDVKQTYLARVFSYPAGNVESTGSAGEPLYENSPEFTPYLETNLGQPTIQSFEQVGTKVNVTVEDERTLVRRNNTFLSLRDVFGKDLIYTLYYWKSSSSGKKTAKTNTNEFLIDVDKGENYCFSVQAVIPSRTVNRKSTDSPVECMGQEKGEFRE
VH-CH1-HPC4: B2 VH-CH1-HPC4
B6: Fab AP-3-LC-L4a-hTF.1-219; VH-CH1-HPC4 (other)
light: DIVMTQAAPSVPVTPGESVSISCRSSRSLLHSNGNTYLCWFLQRPGQSPQLLIYRMSNLASGVPDRFSGSGSGTAFTLRISRVEAEDVGVYYCMQHLEYPFTFGSGTKLEIKRTVAAPSVFIFPPSDEQLKSGTASVVCLLNNFYPREAKVQWKVDNALQSGNSQESVTEQDSKDSTYSLSSTLTLSKADYEKHKVYACEVTHQGLSSPVTKSFNRGECGSGGGGSGGGGSGGGGSSGTTNTVAAYNLTWKSTNFKTILEWEPKPVNQVYTVQISTKSGDWKSKCFYTTDTECDLTDEIVKDVKQTYLARVFSYPAGNVESTGSAGEPLYENSPEFTPYLETNLGQPTIQSFEQVGTKVNVTVEDERTLVRRNNTFLSLRDVFGKDLIYTLYYWKSSSSGKKTAKTNTNEFLIDVDKGENYCFSVQAVIPSRTVNRKSTDSPVECMGQEKGEFRE
heavy: QVQLQQSGAELVRPGTSVKISCKASGYTFTNYWLGWVKQRPGHGLEWIGDIYPGGGYNKYNENFKGKATLTADTSSSTAYMQLSSLTSEDSAVYFCAREYGNYDYAMDSWGQGTSVTVSSASTKGPSVFPLAPCSRSTSESTAALGCLVKDYFPEPVTVSWNSGALTSGVHTFPAVLQSSGLYSLSSVVTVPSSSLGTKTYTCNVDHKPSNTKVDKRVESKEDQVDPRLIDGK
B7: Fab AP-3-LC.C34S-L4a-hTF.1-219; VH-CH1-HPC4 (other)
light: B6 light with C39S
heavy: B6 heavy
B8: Fab 0012-LC-L4a-hTF.1-219; VH-CH1-HPC4 (other)
light: DVVMTQTPLSLPVSLGDQASISCRSSQSLVHRNGNTYFHWCLQKPGQSPKLLIYKVSNRFSGVPDRFSGSGSGTDFTLKISRVEAEDLGVYFCSQSTHVPYTFGGGTKLEIKRTVAAPSVFIFPPSDEQLKSGTASVVCLLNNFYPREAKVQWKVDNALQSGNSQESVTEQDSKDSTYSLSSTLTLSKADYEKHKVYACEVTHQGLSSPVTKSFNRGECGSGGGGSGGGGSGGGGSSGTTNTVAAYNLTWKSTNFKTILEWEPKPVNQVYTVQISTKSGDWKSKCFYTTDTECDLTDEIVKDVKQTYLARVFSYPAGNVESTGSAGEPLYENSPEFTPYLETNLGQPTIQSFEQVGTKVNVTVEDERTLVRRNNTFLSLRDVFGKDLIYTLYYWKSSSSGKKTAKTNTNEFLIDVDKGENYCFSVQAVIPSRTVNRKSTDSPVECMGQEKGEFRE
heavy: B2 VH-CH1-HPC4

Experiments:
[1] = target: T1, hTF.1-219 (soluble tissue factor)
[2] = target: mAb-hTF.1-219 fusion proteins (those tested in FIG. 7)
[3] = target: Fab-hTF.1-219 fusion proteins (those tested in FIG. 7)
[4] = target: T2, TLT-1 receptor on the surface of activated human platelets (human)
[5] = target: T3, TLT-1 18-188 relipidated in 20:80 PS:PC vesicles (human)
[6] = target: T6, GPIIbIIIa receptor on human platelets (human, UniProt P08514 32-1039; P05106 27-788); assay: cell-based or functional assay
T6 sequence (P08514 32-1039, chain 1 of 2): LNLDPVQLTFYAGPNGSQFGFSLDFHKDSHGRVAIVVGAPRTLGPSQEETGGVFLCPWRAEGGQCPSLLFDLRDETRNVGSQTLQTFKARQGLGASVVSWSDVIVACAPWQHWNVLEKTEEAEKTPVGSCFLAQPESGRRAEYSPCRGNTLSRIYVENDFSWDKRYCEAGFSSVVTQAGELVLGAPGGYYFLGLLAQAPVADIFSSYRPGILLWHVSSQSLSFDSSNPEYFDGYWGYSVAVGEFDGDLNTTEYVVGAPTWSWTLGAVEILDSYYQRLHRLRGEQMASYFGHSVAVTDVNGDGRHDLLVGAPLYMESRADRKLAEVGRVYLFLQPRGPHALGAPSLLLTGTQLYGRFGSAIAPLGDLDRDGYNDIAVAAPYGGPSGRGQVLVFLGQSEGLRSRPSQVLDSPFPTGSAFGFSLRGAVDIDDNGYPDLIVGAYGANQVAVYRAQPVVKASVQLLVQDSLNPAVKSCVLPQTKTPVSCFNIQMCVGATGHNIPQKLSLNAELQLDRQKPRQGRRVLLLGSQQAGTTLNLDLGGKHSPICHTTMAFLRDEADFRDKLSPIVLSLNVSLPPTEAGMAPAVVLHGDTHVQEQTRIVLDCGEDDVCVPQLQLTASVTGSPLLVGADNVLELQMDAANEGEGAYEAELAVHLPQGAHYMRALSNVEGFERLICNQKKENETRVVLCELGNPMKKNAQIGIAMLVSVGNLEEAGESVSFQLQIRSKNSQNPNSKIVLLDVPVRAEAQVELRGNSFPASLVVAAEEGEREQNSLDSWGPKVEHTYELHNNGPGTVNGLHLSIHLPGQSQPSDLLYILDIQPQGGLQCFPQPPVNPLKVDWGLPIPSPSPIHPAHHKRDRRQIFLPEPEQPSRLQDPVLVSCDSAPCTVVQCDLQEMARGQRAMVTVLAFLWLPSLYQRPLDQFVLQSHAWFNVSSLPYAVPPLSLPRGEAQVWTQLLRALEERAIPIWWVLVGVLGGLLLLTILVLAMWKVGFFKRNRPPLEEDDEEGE
T6 sequence (P05106 27-788, chain 2 of 2): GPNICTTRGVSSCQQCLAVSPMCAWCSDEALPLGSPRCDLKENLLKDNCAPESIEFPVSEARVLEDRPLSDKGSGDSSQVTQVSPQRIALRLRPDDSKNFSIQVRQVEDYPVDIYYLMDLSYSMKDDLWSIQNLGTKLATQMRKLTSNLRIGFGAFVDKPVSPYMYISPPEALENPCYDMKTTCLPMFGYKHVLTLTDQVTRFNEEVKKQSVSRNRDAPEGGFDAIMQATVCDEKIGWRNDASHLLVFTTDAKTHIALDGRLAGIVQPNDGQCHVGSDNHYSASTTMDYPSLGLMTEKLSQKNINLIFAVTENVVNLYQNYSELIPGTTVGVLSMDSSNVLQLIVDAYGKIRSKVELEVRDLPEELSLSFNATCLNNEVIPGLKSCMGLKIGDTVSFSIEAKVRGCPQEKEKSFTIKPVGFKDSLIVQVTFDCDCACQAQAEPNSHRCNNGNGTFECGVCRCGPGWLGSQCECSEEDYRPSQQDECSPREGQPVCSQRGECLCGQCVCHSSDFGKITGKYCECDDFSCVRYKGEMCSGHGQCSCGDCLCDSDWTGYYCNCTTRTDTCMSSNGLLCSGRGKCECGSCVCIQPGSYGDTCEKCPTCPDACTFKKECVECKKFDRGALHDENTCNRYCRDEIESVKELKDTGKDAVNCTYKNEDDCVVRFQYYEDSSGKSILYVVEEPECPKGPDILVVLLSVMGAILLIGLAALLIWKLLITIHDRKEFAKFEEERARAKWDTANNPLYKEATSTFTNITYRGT

[7] = target: T6, GPIIbIIIa receptor on human platelets; assay: cell-based or functional assay; remark: listed apart in the source
[8] = target: T4, TLT-1 18-188 relipidated in 20:80 PS:PC …; assay: cell-based or functional assay
[9] = target: T5, TLT-1 receptor on the surface of …; assay: cell-based or functional assay

Binder | FVII-mediated FXa generation % Activity activated plts (n 1) [4] | FVIIa-mediated FXa generation % Activity activated plts (n 1) [4] | FVII-mediated FXa generation % Activity lipidated TLT-1 [5] | FVIIa-mediated FXa generation % Activity lipidated TLT-1 [5] | also measured
B1 | – | – | – | – | FVIIa amidolytic activity (chromogenic substrate S2288, A405) [1]: Binding of hTF.1-219 to FVIIa increases the FVIIa catalytic activity; FVIIa amidolytic activity (chromogenic substrate S2288, A405) [2]: similarly stimulate FVIIa activity in a concentration dependent manner identical to that of hTF.1-219; FVIIa amidolytic activity (chromogenic substrate S2288, A405) [3]: stimulate FVIIa amidolytic activity in a concentration dependent manner indistinguishable from that induced by hTF.1-219
B2 | 95% | 91% | 94% | 101% | –
B3 | 92% | 95% | 95% | 98% | –
B4 | 86% | 81% | 94% | 98% | –
B5 | 80% | 76% | 88% | 95% | –
B6 | – | – | – | – | FVII-mediated FXa generation % Activity activated plts (n 1) [6]: 218%; FVIIa-mediated FXa generation % Activity activated plts (n 1) [6]: 164%; FX activation: response with resting platelets relative to activated platelets [7]: ~20 % of the response with activated platelets
B7 | – | – | – | – | FVII-mediated FXa generation % Activity activated plts (n 1) [6]: 215%; FVIIa-mediated FXa generation % Activity activated plts (n 1) [6]: 143%; FX activation: response with resting platelets relative to activated platelets [7]: ~20 % of the response with activated platelets
B8 | – | – | – | – | FVII-mediated FXa generation % Activity lipidated TLT-1 [8]: 97%; FX activation: response with resting platelets relative to activated platelets [9]: 8 % of the response with activated platelets

Reference: patent US20120178908A1 (Novo Nordisk, published 2012)
